Test results taken from US20160201097A1, “Materials and Methods of Producing 7-Carbon Monomers” (INVISTA North America S.á.r.l., priority 2014, published 2016).

Key:
Type in all cases: biochemical
[1] = ω-transaminase activity: 7-aminoheptanol to 7-oxoheptanol (L-alanine formation by RP-HPLC); details: for acceptance of 7-aminoheptanol as substrate (conversion of pyruvate to L-alanine): cell free extract, 10 mM 7-aminoheptanol, 10 mM pyruvate, pH 7.5, 25° C., 4 h, against the empty vector control (FIG. 17); for acceptance of 7-oxoheptanol as substrate forming 7-aminoheptanol: concluded from the reversibility of the ω-transaminase activity (Example 1)
Experimental: A nucleotide sequence encoding an N-terminal His-tag was added to the Chromobacterium violaceum, Pseudomonas syringae and Rhodobacter sphaeroides nucleic acids encoding the ω-transaminases of SEQ ID NOs: 7, 9 and 10, respectively (see FIG. 6) such that N-terminal HIS tagged ω-transaminases could be produced. The modified genes were cloned into a pET21a expression vector under the T7 promoter. Each expression vector was transformed into a BL21[DE3] E. coli host. Each resulting recombinant E. coli strain were cultivated at 37° C. in a 250 mL shake flask culture containing 50 mL LB media and antibiotic selection pressure, with shaking at 230 rpm. Each culture was induced overnight at 16° C. using 1 mM IPTG.
(§1) The pellet from each induced shake flask culture was harvested via centrifugation. Each pellet was resuspended and lysed via sonication. The cell debris was separated from the supernatant via centrifugation and the cell free extract was used immediately in enzyme activity assays.
Enzyme activity assays in the reverse direction (i.e., 7-aminoheptanol to 7-oxoheptanol) were performed in a buffer composed of a final concentration of 50 mM HEPES buffer (pH=7.5), 10 mM 7-aminoheptanol, 10 mM pyruvate, and […] pyridoxyl 5′ phosphate. Each enzyme activity assay reaction was initiated by adding cell free extract of the ω-transaminase gene product or the empty vector control to the assay buffer containing the 7-aminoheptanol and then incubated at 25° C. for 4 h, with shaking at 250 rpm. The formation of L-alanine was quantified via RP-HPLC.

[2] = ω-transaminase activity, forward direction: pimelate semialdehyde to 7-aminoheptanoate (pyruvate formation by RP-HPLC); details: for acceptance of pimelate semialdehyde as substrate (conversion of L-alanine to pyruvate): cell free extract, 10 mM pimelate semialdehyde, 10 mM L-alanine, pH 7.5, 25° C., 4 h, against the empty vector control (FIG. 14); for reversibility of ω-transaminase activity: pimelate semialdehyde accepted, 7-aminoheptanoate synthesized: conclusion from reverse and forward assays of Example 1
Experimental: (§2) A nucleotide sequence encoding an N-terminal His-tag was added to the nucleic acid sequences from Chromobacterium violaceum, Pseudomonas syringae, Rhodobacter sphaeroides, and Vibrio fluvialis encoding the ω-transaminases of SEQ ID NOs: 7, 9, 10 and 12, respectively (see FIG. 6) such that N-terminal HIS tagged ω-transaminases could be produced. Each of the resulting modified genes was cloned into a pET21a expression vector under control of the T7 promoter and each expression vector was transformed into a BL21[DE3] E. coli host. The resulting recombinant E. coli strains were cultivated at 37° C. in a 250 mL shake flask culture containing 50 mL LB media and antibiotic selection pressure, with shaking at 230 rpm. Each culture was induced overnight at 16° C. using 1 mM IPTG.
as §1
Enzyme activity in the forward direction (i.e., pimelate semialdehyde to 7-aminoheptanoate) was confirmed for the transaminases of SEQ ID NO 9, SEQ ID NO 10 and SEQ ID NO 12. Enzyme activity assays were performed in a buffer composed of a final concentration of 50 mM HEPES buffer (pH=7.5), 10 mM pimelate semialdehyde, 10 mM L-alanine and 100 μM pyridoxyl 5′ phosphate. Each enzyme activity assay reaction was initiated by adding a cell free extract of the ω-transaminase gene product or the empty vector control to the assay buffer containing the pimelate semialdehyde and incubated at 25° C. for 4 h, with shaking at 250 rpm. The formation of pyruvate was quantified via RP-HPLC.

[3] = ω-transaminase activity, reverse direction: 7-aminoheptanoate to pimelate semialdehyde (L-alanine formation by RP-HPLC); details: cell free extract, 10 mM 7-aminoheptanoate, 10 mM pyruvate, pH 7.5, 25° C., 4 h; against the empty vector control (FIG. 13)
Experimental: as §2, §1
Enzyme activity assays in the reverse direction (i.e., 7-aminoheptanoate to pimelate semialdehyde) were performed in a buffer composed of a final concentration of 50 mM HEPES buffer (pH=7.5), 10 mM 7-aminoheptanoate, 10 mM pyruvate and 100 μM pyridoxyl 5′ phosphate. Each enzyme activity assay reaction was initiated by adding cell free extract of the ω-transaminase gene product or the empty vector control to the assay buffer containing the 7-aminoheptanoate and incubated at 25° C. for 4 h, with shaking at 250 rpm. The formation of L-alanine from pyruvate was quantified via RP-HPLC.

[4] = carboxylate reductase activity: N7-acetyl-7-aminoheptanoate to N7-acetyl-7-aminoheptanal (NADPH consumption, A340); details: purified enzyme enhanced by sfp gene product, 2 mM N7-acetyl-7-aminoheptanoate, pH 7.5, room temperature, 20 min; against the empty vector control (FIG. 10)
Experimental: The activity of each of the N-terminal His-tagged carboxylate reductases of SEQ ID NOs: 3, 5, and 6 (see Examples 2 and 3, and FIG. 6) for converting N7-acetyl-7-aminoheptanoate to N7-acetyl-7-aminoheptanal was assayed in triplicate in a buffer composed of a final concentration of 50 mM HEPES buffer (pH=7.5), 2 mM N7-acetyl-7-aminoheptanoate, 10 mM MgCl2, 1 mM ATP, and 1 mM NADPH. The assays were initiated by adding purified carboxylate reductase and phosphopantetheine transferase or the empty vector control to the assay buffer containing the N7-acetyl-7-aminoheptanoate then incubated at room temperature for 20 min. The consumption of NADPH was monitored by absorbance at 340 nm.

SEQ ID NO: 10: Rhodobacter sphaeroides ω-transaminase, N-terminal HIS tagged
acceptance of 7-aminoheptanol as substrate (conversion of pyruvate to L-alanine) [1]: accepted 7-aminoheptanol as substrate | acceptance of 7-oxoheptanol as substrate forming 7-aminoheptanol [1]: accept 7-oxoheptanol as substrate and form 7-aminoheptanol | acceptance of pimelate semialdehyde as substrate (conversion of L-alanine to pyruvate) [2]: accepted pimelate semialdehyde as substrate | reversibility of ω-transaminase activity: pimelate semialdehyde accepted, 7-aminoheptanoate synthesized [2]: accepted pimelate semialdehyde as substrate and synthesized 7-aminoheptanoate as a reaction product | acceptance of 7-aminoheptanoate as substrate (conversion of pyruvate to L-alanine) [3]: accepted 7-aminoheptanoate as substrate

B1: SEQ ID NO: 3: Mycobacterium smegmatis carboxylate reductase, N-terminal HIS tagged (protein, listed as Mycobacterium smegmatis)
chain: MTSDVHDATDGVTETALDDEQSTRRIAELYATDPEFAAAAPLPAVVDAAHKPGLRLAEILQTLFTGYGDRPALGYRARELATDEGGRTVTRLLPRFDTLTYAQVWSRVQAVAAALRHNFAQPIYPGDAVATIGFASPDYLTLDLVCAYLGLVSVPLQHNAPVSRLAPILAEVEPRILTVSAEYLDLAVESVRDVNSVSQLVVFDHHPEVDDHRDALARAREQLAGKGIAVTTLDAIADEGAGLPAEPIYTADHDQRLAMILYTSGSTGAPKGAMYTEAMVARLWTMSFITGDPTPVINVNFMPLNHLGGRIPISTAVQNGGTSYFVPESDMSTLFEDLALVRPTELGLVPRVADMLYQHHLATVDRLVTQGADELTAEKQAGAELREQVLGGRVITGFVSTAPLAAEMRAFLDITLGAHIVDGYGLTETGAVTRDGVIVRPPVIDYKLIDVPELGYFSTDKPYPRGELLVRSQTLTPGYYKRPEVTASVFDRDGYYHTGDVMAETAPDHLVYVDRRNNVLKLAQGEFVAVANLEAVFSGAALVRQIFVYGNSERSFLLAVVVPTPEALEQYDPAALKAALADSLQRTARDAELQSYEVPADFIVETEPFSAANGLLSGVGKLLRPNLKDRYGQRLEQMYADIAATQANQLRELRRAAATQPVIDTLTQAAATILGTGSEVASDAHFTDLGGDSLSALTLSNLLSDFFGFEVPVGTIVNPATNLAQLAQHIEAQRTAGDRRPSFTTVHGADATEIRASELTLDKFIDAETLRAAPGLPKVTTEPRTVLLSGANGWLGRFLTLQWLERLAPVGGTLITIVRGRDDAAARARLTQAYDTDPELSRRFAELADRHLRVVAGDIGDPNLGLTPEIWHRLAAEVDLVVHPAALVNHVLPYRQLFGPNVVGTAEVIKLALTERIKPVTYLSTVSVAMGIPDFEEDGDIRTVSPVRPLDGGYANGYGNSKWAGEVLLREAHDLCGLPVATFRSDMILAHPRYRGQVNVPDMFTRLLLSLLITGVAPRSFYIGDGERPRAHYPGLTVDFVAEAVTTLGAQQREGYVSYDVMNPHDDGISLDVFVDWLIRAGHPIDRVDDYDDWVRRFETALTALPEKRRAQTVLPLLHAFRAPQAPLRGAPEPTEVFHAAVRTAKVGPGDIPHLDEALIDKYIRDLREFGLI
modifications: N-terminal His tag
notes: Mycobacterium smegmatis carboxylate reductase, N-terminal HIS tagged
acceptance of N7-acetyl-7-aminoheptanoate as substrate (NADPH consumption) [4]: accepted N7-acetyl-7-aminoheptanoate as substrate

B2: SEQ ID NO: 9: Pseudomonas syringae ω-transaminase, N-terminal HIS tagged (protein, listed as Pseudomonas syringae)
chain: MSANNPQTLEWQALSSEHHLAPFSDYKQLKEKGPRIITRAEGVYLWDSEGNKILDGMSGLWCVAIGYGREELADAASKQMRELPYYNLFFQTAHPPVLELAKAISDIAPEGMNHVFFTGSGSEGNDTMLRMVRHYWALKGQPNKKTIISRVNGYHGSTVAGASLGGMTYMHEQGDLPIPGVVHIPQPYWFGEGGDMTPDEFGIWAAEQLEKKILELGVENVGAFIAEPIQGAGGVIVPPDSYWPKIKEILSRYDILFAADEVICGFGRTSEWFGSDFYGLRPDMMTIAKGLTSGYVPMGGLIVRDEIVAVLNEGGDFNHGFTYSGHPVAAAVALENIRILREEKIVERVRSETAPYLQKRLRELSDHPLVGEVRGVGLLGAIELVKDKTTRERYTDKGAGMICRTFCFDNGLIMRAVGDTMIIAPPLVISFAQIDELVEKARTCLDLTLAVLQG
modifications: N-terminal His tag
notes: Pseudomonas syringae ω-transaminase, N-terminal HIS tagged
acceptance of 7-aminoheptanol as substrate (conversion of pyruvate to L-alanine) [1]: accepted 7-aminoheptanol as substrate | acceptance of 7-oxoheptanol as substrate forming 7-aminoheptanol [1]: accept 7-oxoheptanol as substrate and form 7-aminoheptanol | acceptance of pimelate semialdehyde as substrate (conversion of L-alanine to pyruvate) [2]: accepted pimelate semialdehyde as substrate | reversibility of ω-transaminase activity: pimelate semialdehyde accepted, 7-aminoheptanoate synthesized [2]: accepted pimelate semialdehyde as substrate and synthesized 7-aminoheptanoate as a reaction product | acceptance of 7-aminoheptanoate as substrate (conversion of pyruvate to L-alanine) [3]: accepted 7-aminoheptanoate as substrate

B3: SEQ ID NO: 12: Vibrio fluvialis ω-transaminase, N-terminal HIS tagged (protein, listed as Vibrio fluvialis)
chain: MNKPQSWEARAETYSLYGFTDMPSLHQRGTVVVTHGEGPYIVDVNGRRYLDANSGLWNMVAGFDHKGLIDAAKAQYERFPGYHAFFGRMSDQTVMLSEKLVEVSPFDSGRVFYTNSGSEANDTMVKMLWFLHAAEGKPQKRKILTRWNAYHGVTAVSASMTGKPYNSVFGLPLPGFVHLTCPHYWRYGEEGETEEQFVARLARELEETIQREGADTIAGFFAEPVMGAGGVIPPAKGYFQAILPILRKYDIPVISDEVICGFGRTGNTWGCVTYDFTPDAIISSKNLTAGFFPMGAVILGPELSKRLETAIEAIEEFPHGFTASGHPVGCAIALKAIDVVMNEGLAENVRRLAPRFEERLKHIAERPNIGEYRGIGFMWALEAVKDKASKTPFDGNLSVSERIANTCTDLGLICRPLGQSVVLCPPFILTEAQMDEMFDKLEKALDKVFAEVA
modifications: N-terminal His tag
notes: Vibrio fluvialis ω-transaminase, N-terminal HIS tagged
acceptance of pimelate semialdehyde as substrate (conversion of L-alanine to pyruvate) [2]: accepted pimelate semialdehyde as substrate | reversibility of ω-transaminase activity: pimelate semialdehyde accepted, 7-aminoheptanoate synthesized [2]: accepted pimelate semialdehyde as substrate and synthesized 7-aminoheptanoate as a reaction product | acceptance of 7-aminoheptanoate as substrate (conversion of pyruvate to L-alanine) [3]: accepted 7-aminoheptanoate as substrate
